These results are taken from patent publication US20220088190A1 (University of Pennsylvania, published 2022).

Experiment [1] has as its target T1, HLA-A*11:01 (human).
T1 construct: the construct is not described
Put plainly: peptide-MHC binding, competitive fluorescence polarization assay. In general terms: Fluorescence polarisation rises when a labelled molecule tumbles more slowly, as on binding a larger partner.

Experiment [2] deals with T2, HLA-A*11:01 expressed on monoallelic K562 RAS TMG cells (human).
T2 construct: also called K562-A*11:01
Nature of the experiment: HLA class I immunoprecipitation, peptide elution and tandem MS/MS from monoallelic K562 RAS TMG cells (FIG. 8F).

The target of experiment [3] is T3, HLA-A*03:01 expressed on monoallelic K562 RAS TMG cells (human).
T3 construct: also called K562-A*03:01
Nature of the experiment: HLA class I immunoprecipitation, peptide elution and tandem MS/MS from monoallelic K562 RAS TMG cells (FIG. 8A).

The target of experiment [4] is T2, HLA-A*11:01 expressed on monoallelic …. Put plainly: HLA class I immunoprecipitation, peptide elution and tandem MS/MS from monoallelic K562 RAS TMG cells (FIG. 8G).
Experiment [5] has as its target T3, HLA-A*03:01 expressed on monoallelic …. Nature of the experiment: HLA class I immunoprecipitation, peptide elution and tandem MS/MS from monoallelic K562 RAS TMG cells (FIG. 8C).
Experiment [6] deals with T4, HLA-A*03:01 (human).
T4 construct: the construct is not described
Nature of the experiment: peptide-MHC binding, competitive fluorescence polarization assay.

Experiment [7] concerns the target T2, HLA-A*11:01 expressed on monoallelic …. Put plainly: HLA class I immunoprecipitation, peptide elution and tandem MS/MS from monoallelic K562 RAS TMG cells (FIG. 8E).
The target of experiment [8] is T3, HLA-A*03:01 expressed on monoallelic …. Put plainly: HLA class I immunoprecipitation, peptide elution and tandem MS/MS from monoallelic K562 RAS TMG cells (FIG. 8D).
Experiment [9] concerns the target T2, HLA-A*11:01 expressed on monoallelic …. Put plainly: HLA class I immunoprecipitation, peptide elution and tandem MS/MS from monoallelic K562 RAS TMG cells (FIG. 8I).
Experiment [10] deals with T5, HLA-B*07:02 expressed on monoallelic K562 RAS TMG cells (human).
T5 construct: also called K562-B*07:02
Nature of the experiment: HLA class I immunoprecipitation, peptide elution and tandem MS/MS from monoallelic K562 RAS TMG cells (FIG. 8J).

Experiment [11] deals with T6, HLA-B*07:02 (human).
T6 construct: the construct is not described
Nature of the experiment: peptide-MHC binding, competitive fluorescence polarization assay.

B1: mRAS peptide VV_C (RAS G12C), VVGACGVGK (peptide)
peptide: VVGACGVGK
notes: 9-mer mutant RAS short peptide; also called C-9
Take B1: in [1], the binding result was “binds”.

B2: mRAS peptide VVV_D (RAS G12D), VVVGADGVGK (peptide)
peptide: VVVGADGVGK
notes: 10-mer mutant RAS short peptide; also called D-10
As for B2, the binding result in experiment [2], in [3] and in experiment [1] was “binds” throughout.

B3: mRAS peptide VVV_V (RAS G12V), VVVGAVGVGK (peptide)
peptide: VVVGAVGVGK
notes: 10-mer mutant RAS short peptide; also called V-10
In the case of B3, the binding result in experiment [4], in experiment [5], in [6] and in experiment [1] was “binds” in each case.

B4: mRAS peptide VV_D (RAS G12D), VVGADGVGK (peptide)
peptide: VVGADGVGK
notes: 9-mer mutant RAS short peptide; also called D-9
In the case of B4, the binding result in experiment [1] and in experiment [7] was “binds” in each case.

B5: mRAS peptide VV_R (RAS G12R), VVGARGVGK (peptide)
peptide: VVGARGVGK
notes: 9-mer mutant RAS short peptide; also called R-9
Consider B5, for which the binding result in experiment [8], in experiment [9] and in [1] was “binds” in each case.

B6: mRAS peptide GA_R (RAS G12R), GARGVGKSAL (peptide)
peptide: GARGVGKSAL
notes: 10-mer mutant RAS short peptide; also called R-10 (B*07:02 panel)
For the molecule B6, the binding result in experiment [10] and in experiment [11] was “binds” in each case.

B7: mRAS peptide VVV_R (RAS G12R), VVVGARGVGK (peptide)
peptide: VVVGARGVGK
notes: 10-mer mutant RAS short peptide; also called R-10
With B7, the binding result in experiment [6] and in experiment [1] was “binds” each time.
